In the supplement of paper PMC9170038:

What was measured:
[1] = test system: MS2 coat protein; assay: apparent KD of MS2 coat protein, switch OFF state (with FMN for OFF switches, without FMN for ON switches); designed switch direction (-1 OFF switch, 1 ON switch): 1; higher = weaker reporter binding; details: FMN input: 0 or 200 uM; Eterna round: R93 (includes R88 designs)
In short: (§1)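 Values are apparent KD, taken as the median for each design of fits to normalised binding curves from individual clusters. The designed RNA switches were transcribed on-chip from Illumina sequencing clusters and exposed to SNAP-549-labelled MS2 coat protein at twofold increasing amounts from 0.7 or 1.5 nM to 3 µM. Titration used 100 mM Tris-HCl pH 7.5, 80 mM KCl and 4 mM MgCl2, without or with constant ligand.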

[2] = test system: MS2 coat protein; assay: apparent KD of MS2 coat protein, switch ON state; designed switch direction (-1 OFF switch, 1 ON switch): 1; higher = weaker reporter binding; details: FMN input: 0 or 200 uM; Eterna round: R93 (includes R88 designs)
In short: as §1

Sequence	apparent KD of MS2 coat protein [1]	apparent KD of MS2 coat protein [2]
AAAAAACAUGAGGAUCACCCAUGUCCUCACGUGCGAGGAUAUGGAUGGAAACCAUACUGUCCAGAAGGCGCAUGUA [EteRNA is fun!]	159 nM	230 nM
AAAAAACAUGAGGAUCACCCAUGUCGAAAGACGUGAGGAUAUGUACAGACUUCGGUCUGUACAGAAGGCACAAAAA [SS1 - 1032]	208 nM	24.6 nM
AAAAAACAUGAGGAUCACCCAUGUCUUCGGACGUGAGGAUAUGUACAGACUUCGGUCUGUACAGAAGGCACGAAAA [SS1 - 1035]	114 nM	22.7 nM
AAAAAACAUGAGGAUCACCCAUGUGAAGAUAUGGAAGGAUAUACAAAGACGAAAGUCAAAGUAGAAGGUCUAAAAG [76%, Meechl 3]	17.7 nM	17.1 nM
AAAAAACAUGAGGAUCACCCAUGUGAGAACAUGGGAGGAUAUACGAGGACGAGAGUCAAGGUAGAAGGCCUAAAAG [Garnet 73]	13.6 nM	50.1 nM
AAAAAACAUGAGGAUCACCCAUGUGCAAAAUUCGCAGGAUAUUCCUCAAUUAAAUGAGAGGAAGAAGGGUGUAAAA [Nob's Hobby 25 - Jieux - Same State 1]	130 nM	27.4 nM
AAAAAACAUGAGGAUCACCCAUGUGCAAAAUUCGCAGGAUAUUUCUCAAUUAAAUGAGAGGAAGAAGGGUGAAAAA [Nob's Hobby 27 - Jieux - Same State 1]	99.3 nM	21.5 nM
AAAAACACAGUGCAGGAUAUGGUAAUAGUCACAUGAGGAUCACCCAUGUUCUUUUAUAAGAACGAUCAGAAGGGCGGUGAAAAAA [Mat - Same state - Malcolm Mod - D114]	155 nM	241 nM
AAAAAGAACACGCAGGAUAUGCAAAGAAACACAUGAGGAUCACCCAUGUCCAAAAACCCAAAAACGCAGAAGGGCGAAAAACCCA [Default title]	28.3 nM	25.6 nM
AAAACACAUGAGGAUCACCCAUGUGAAAACAUGAGAGGAUAUGCAUGGAAAACAUGCUAUGCAGAAGGCUCAUGUG [SS1 - 8]	23.2 nM	16.5 nM
AAAAGACAUGAGGAUCACCCAUGUAAAGACAUGAGAGGAUAUGCAUGGAAAACAUGCUGUGCAGAAGGCUCAUGUC [SS1 - 17]	22.6 nM	18.1 nM
AAAAGACAUGAGGAUCACCCAUGUCAAGACAUAGGAGGAUAUGUCAUGAAAAAAGACUUGACAGAAGGCCUUUGUC [SS1 - 51]	17.4 nM	16.7 nM
AAAAGACAUGAGGAUCACCCAUGUGAAAACGUAGGAGGAUAUGUCUGGAAAACAGACUGGACAGAAGGCCUGUGUC [SS1 - 33]	36 nM	24.4 nM
AAAAGACAUGAGGAUCACCCAUGUGAAAACGUGCGAGGAUAUGUAUGGAAACUAUACUGUACAGAAGGCGCAUGUC [SS1 - 81]	24.3 nM	19.9 nM
AAACCACAUGAGGAUCACCCAUGUAAAAAUAUGGGAGGAUAUGCGAAAAGAAACAAAGAAGCAGAAGGCCUAAAAA [75%, Ex sub1, 19]	114 nM	26.3 nM
AAAGACAUAGUUCAGGAUAUGGUAAUAGUCACAUGAGGAUCACCCAUGUGCAUUUAUAUGCGCGAUCAGAAGGGAGGUAAAAAAA [SameState2 Malc#16]	21.9 nM	17.5 nM
AAAUAAAGAUACUAGGAUAUCCCGUGAGGUACAUGAGGAUCACCCAUGUGUAACGAACUCCCGCGGGAGAAGGAGUUGCACACGA [Inanuserra]	52.4 nM	38 nM
AAAUAAAGGACUGAGGAUAUACCACAUGAAACAUGAGGAUCACCCAUGUUGAAAAACAGAGGGUGGUAGAAGGCAGUCCACAAAC [Same State 2.5d ( so lets mod hyphema)]	23.3 nM	12.5 nM
AAAUAAAUGACUAAGGAUAUAUCAAAAGAAACAUGAGGAUCACCCAUGUAAUAAUAAAAAGGGUGAUAGAAGGUAGUCAACAAAC [74%, More Paria 4]	115 nM	24.6 nM
AAAUAAAUGACUGAGGAUAUAUCGAUGAGUACAUGAGGAUCACCCAUGUGAUAAUAAAAAGGGUGGUAGAAGGUAGUCAACAAAC [Mod 14 of Pariah 4 by Hyphema in Round 1]	150 nM	185 nM
AAAUAACAUGAGGAUCACCCAUGUUACGACGUUACAGGAUAUGUGGGUGAAAAUAGCAUGACAGAAGGGUACCGUA [SameState1 Malc#37]	60.3 nM	68.5 nM
AACAAUCUAUCUGAGGAUAUCAUGACAAAGACAUGAGGAUCACCCAUGUCCAGGAAAACUGGUUAUGAGAAGGCAGAUAGAUUGA [SS2: 1112]	13.2 nM	9.7 nM

Sequence	apparent KD of MS2 coat protein [1]	apparent KD of MS2 coat protein [2]
AACAAUCUAUCUGAGGAUAUCAUGUCAAAGACAUGAGGAUCACCCAUGUGUAGGAAAACUACAUAUGAGAAGGCAGAUAGAUUGA [SS2 :P - 598]	103 nM	610 nM
AACAAUCUAUCUGAGGAUAUCAUGUGAAAGACAUGAGGAUCACCCAUGUUGCAGGAAACUGCUCAUGAGAAGGCAGAUAGAUUGA [SS2: 1126]	28.3 nM	11.5 nM
AACAGGAAGAGAGAGGAUAUCCAAAGGAAAACAUGAGGAUCACCCAUGUAAAAGGUAGGAAAUUGGGAGAAGGCUCAAGAGAGAG [salish99-ss2-089]	47.3 nM	24.8 nM
AAGAAACAUGAGGAUCACCCAUGUAAGAUAAACACAGGAUAUGCGAAAAGAAACAAAUAAGCAGAAGGGUGAAGAA [Mat - Same State 1 - Tesla mod - 64]	23 nM	16.3 nM
AAGAAACAUGAGGAUCACCCAUGUAAGAUAAACACAGGAUAUGCGAAAAUAAACAAAUAAGCAGAAGGGUGAAAAG [Mat - Same State 1 - Tesla mod - 76]	19.3 nM	15.2 nM
AAGAAACAUGAGGAUCACCCAUGUAGAAAUAUGGGAGGAUAUACAAAGACGAAAGUCAAAGUAGAAGGCCUGAAAG [Mat - Same State 1 - Eli mod - 84]	72.4 nM	38.5 nM
AAGAAACAUGAGGAUCACCCAUGUGAUAAUAUGGGAGGAUAUACAAAGACGAAAGACGAAGUAGAAGGCCUAUGAA [Garnet 44]	124 nM	49 nM
AAGAAACAUGAGGAUCACCCAUGUGAUAAUAUGGGAGGAUAUACGAAGACGAAAGACGAAGUAGAAGGCCUAUGAA [Garnet 45]	83.3 nM	46.9 nM
AAUAACAAAAGAAAGGAUAUAUAAACAGGAACAUGAGGAUCACCCAUGUGCCGCCAAGGCGGAUAAUAGAAGGUUCACAUGCAUA [Default title]	25.3 nM	47 nM
AAUAAUUAUACGAAGGAUAUCGGUAUUAAGACAUGAGGAUCACCCAUGUAAUAUGGUUAUAUAAACGAGAAGGUCGAGGGUGAAA [JR_SS002_Sub008]	36.9 nM	38.6 nM
AAUAAUUAUAUGGAGGAUAUCGGUAAUAAGACAUGAGGAUCACCCAUGUAAUAAGGUUAAAUAAACGAGAAGGCCAAGGGUGAAA [JR_SS002_Sub005]	234 nM	59.7 nM
AAUAGACAUGAGGAUCACCCAUGUGUAUAUGGGAGAGGAUAUACGGGACACAAGGGCGGAGUAGAAGGCUCGAGAC [Same Satate 1]	83.9 nM	68.2 nM
AAUAUACAUGAGGAUCACCCAUGUUAGGUGGGACUAGGAUAUCAAAAGAAAGAGUAAGAAUGAGAAGGAGUAGAAA [JR_SS001_Sub016]	240 nM	145 nM
AAUAUACAUGAGGAUCACCCAUGUUUUAAUAGCUGAGGAUAUACGGGUGAAAACAGCAUAGUAGAAGGCAGGUAUA [SameState1 Malc#7]	86.7 nM	27.6 nM
AAUAUAUUAUUUAAGGAUAUCAUAGGAAAAACAUGAGGAUCACCCAUGUGGGAAACCUGGUCGGGUGAGAAGGUGGAUAAUAUAU [Samwise Clockwise 34 - Jieux - Same State 2]	317 nM	93.7 nM
AGAAAACAUGAGGAUCACCCAUGUAGAAAUAUGGGAGGAUAUACAAAGACGAAAGUCAGAGUAGAAGGCCUAAAAA [salish99-SS1-085]	77.3 nM	14.6 nM
AGAAAACAUGAGGAUCACCCAUGUAGAAAUAUGGGAGGAUAUACGAAGACGAAAGUCAAAGUAGAAGGCCUAAAAG [Mat - Same State 1 - Eli mod - D102]	69.8 nM	22 nM
AGAAAUAAAACGCAGGAUAUCCAAAAGAAAACAUGAGGAUCACCCAUGUAAAAGAAAAUAAAAUGGGAGAAGGGCGAAAUAAAGA [Mat - Same State 2 - Eli mod - D92]	20.9 nM	19.3 nM
AGAAAUAAAAGACAGGAUAUCCUUAAGAAAACAUGAGGAUCACCCAUGUAAAAGAAAAUAAAAAGGGAGAAGGGUCAAAAUAAGA [Mat - Same State 2 - JL mod - D80]	26.2 nM	18 nM
AGAAAUAAAAGAGAGGAUAUCCAAAAGAAAACAUGAGGAUCACCCAUGUAAAAGAAAAUAAAAUGGGAGAAGGCUCAAUAAAAGA [Modifying Jieux]	42 nM	17.9 nM
AGAAAUAAAAGAGAGGAUAUCCAAAAGAAAACAUGAGGAUCACCCAUGUAAAAGAAAAUAAAAUGGGAGAAGGCUCGAAAUAAGA [Topaz 21]	107 nM	18.3 nM
